These are literature values, as cited in publication PMC4698235.

The Kd is a measure of binding affinity in units of concentration.

The target in one data set is insulin (Homo sapiens) (UniProt P01308).
A further data set addresses IDE (Homo sapiens) (UniProt P14735).

Sequence of UniProt P01308 (P01308 90-110): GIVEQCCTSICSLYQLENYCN

Consider IDE (from UniProt P14735), for which the Kd in the data set with insulin (Homo sapiens) and with IDE (Homo sapiens) was 10 nM in each case.
